The target of experiment [1] is T1, WT DR5 recombinant protein (IgG4-Fc tagged extracellular domain of human DR5) (human, UniProt O14763-1 56-210, biotinylated with EZ-Link Sulfo-NHS-SS-Biotin for BLI). The experiment in a line: ELISA. In general terms: In an ELISA, binding on a coated surface is turned into a signal by an enzyme label.
The target in experiment [2] is T1, WT DR5 recombinant protein (IgG4-Fc …). Kind of experiment: BLI. (Biolayer interferometry detects binding as a change in optical thickness at a sensor tip.)
The target of experiment [3] is RKCSR DR5. The experiment in a line: BLI.
Experiment [4] deals with Monkey DR5. The experiment in a line: BLI.
For experiment [5], the target named is Chimp DR5. The experiment in a line: BLI.
Experiment [6] concerns the target RKCAR DR5. Kind of experiment: BLI.
Experiment [7] has as its target T1, WT DR5 recombinant protein (IgG4-Fc …). Kind of experiment: BLI. The source holds these as a separate data set.
The target is the same in experiment [8]. The experiment in a line: ELISA. This is another data set of the same source.

What is called Kd is the equilibrium constant for the complex coming apart.

B1: KMTR2 (antibody, V domains shown)
VH: QVQLVQSGAEMKKPGASVKVSCKTSGYTFTNYKINWVRQAPGQGLEWMGWMNPDTDSTGYPQKFQGRVTMTRNTSISTAYMELSSLRSEDTAVYYCARSYGSGSYYRDYYYGMDVWGQGTTVTVSS
VL: EIVLTQSPATLSLSPGERATLSCRASQSVSSYLAWYQQKPGQAPRLLIYDASNRATGIPARFSGSGSGTDFTLTISSLEPEDFAVYYCQQRSNWPLTFGGGTKVEIK
In the case of B1, the values for the equilibrium dissociation constant (Kd) in experiment [1] and in experiment [2] were 0.088 nM and less than 0.001 nM, respectively.

B2: Lexatumumab (antibody, V domains shown)
VH: EVQLVQSGGGVERPGGSLRLSCAASGFTFDDYGMSWVRQAPGKGLEWVSGINWNGGSTGYADSVKGRVTISRDNAKNSLYLQMNSLRAEDTAVYYCAKILGAGRGWYFDLWGKGTTVTVSS
VL: SSELTQDPAVSVALGQTVRITCQGDSLRSYYASWYQQKPGQAPVLVIYGKNNRPSGIPDRFSGSSSGNTASLTITGAQAEDEADYYCNSRDSSGNHVVFGGGTKLTVL
For B2, the Kd in experiment [3] was 0.215 nM; in experiment [4] it was 0.014 nM; in experiment [5] it was less than 1 pM; in experiment [6] it was 0.266 nM; in experiment [1], 0.081 nM; in experiment [2], 0.519 nM. Moreover, the results for the Kd in experiment [7] and in experiment [8] were 0.0376 nM and 0.032 nM, respectively.

Values taken from paper PMC8720280 (2021).
